No end group written: not given here.
Tests used:
[1] = molecular target: T1, cell-surface-expressed hamster nucleolin (on CHO K1, CHO 677 and CHO 618 cells) (Chinese hamster), A0A8C2; test: biotinylated HB-19A on wild type CHO K1 cells, streptavidin-HRP
T1 chain: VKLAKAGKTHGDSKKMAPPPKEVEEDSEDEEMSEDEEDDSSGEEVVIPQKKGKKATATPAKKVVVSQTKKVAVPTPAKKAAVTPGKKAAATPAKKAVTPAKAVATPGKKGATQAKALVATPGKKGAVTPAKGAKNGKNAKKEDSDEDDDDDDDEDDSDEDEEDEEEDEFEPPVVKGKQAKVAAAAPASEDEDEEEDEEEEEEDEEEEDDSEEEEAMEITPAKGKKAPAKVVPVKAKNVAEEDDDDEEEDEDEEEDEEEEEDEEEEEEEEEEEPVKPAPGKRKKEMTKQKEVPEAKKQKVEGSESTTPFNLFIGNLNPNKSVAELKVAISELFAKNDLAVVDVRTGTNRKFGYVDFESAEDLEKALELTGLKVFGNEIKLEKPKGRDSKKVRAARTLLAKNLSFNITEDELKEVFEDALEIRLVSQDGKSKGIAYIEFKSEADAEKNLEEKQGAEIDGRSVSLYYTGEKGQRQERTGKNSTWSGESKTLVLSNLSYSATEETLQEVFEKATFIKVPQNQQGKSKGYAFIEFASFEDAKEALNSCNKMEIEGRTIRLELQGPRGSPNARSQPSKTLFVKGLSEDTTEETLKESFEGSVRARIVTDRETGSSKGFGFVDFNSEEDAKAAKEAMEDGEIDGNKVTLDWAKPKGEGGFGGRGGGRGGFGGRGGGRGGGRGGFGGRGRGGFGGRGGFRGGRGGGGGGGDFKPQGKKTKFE

[2] = molecular target: cell-surface-expressed human nucleolin (on HeLa P4 and MT4 cells) (human), P19338; test: 125I-labeled HB-19A on HeLa P4 cell monolayers, wash at 300 mM NaCl
[3] = molecular target: GST-R1234G, GST fusion of the C-terminal part of human nucleolin (RBDs I-IV and RGG domain) (human) (UniProt P19338); test: dose series 0-10 µM biotinylated HB-19A, avidin-agarose pull-down, anti-GST immunoblot
[4] = molecular target: GST-R234G, GST fusion of human nucleolin RBDs II, III, IV and the RGG domain (human) (UniProt P19338); test: as above
[5] = molecular target: GST-G, GST fusion of the RGG domain of human nucleolin alone (human), P19338; test: as above
Chain of GST-G, GST fusion of the RGG domain of human nucleolin alone (human), P19338 (P19338 648-710): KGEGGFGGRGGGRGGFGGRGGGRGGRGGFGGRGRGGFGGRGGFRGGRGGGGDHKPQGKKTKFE

Chain of cell-surface-expressed human nucleolin (on HeLa P4 and MT4 cells) (human), P19338 (P19338 2-710): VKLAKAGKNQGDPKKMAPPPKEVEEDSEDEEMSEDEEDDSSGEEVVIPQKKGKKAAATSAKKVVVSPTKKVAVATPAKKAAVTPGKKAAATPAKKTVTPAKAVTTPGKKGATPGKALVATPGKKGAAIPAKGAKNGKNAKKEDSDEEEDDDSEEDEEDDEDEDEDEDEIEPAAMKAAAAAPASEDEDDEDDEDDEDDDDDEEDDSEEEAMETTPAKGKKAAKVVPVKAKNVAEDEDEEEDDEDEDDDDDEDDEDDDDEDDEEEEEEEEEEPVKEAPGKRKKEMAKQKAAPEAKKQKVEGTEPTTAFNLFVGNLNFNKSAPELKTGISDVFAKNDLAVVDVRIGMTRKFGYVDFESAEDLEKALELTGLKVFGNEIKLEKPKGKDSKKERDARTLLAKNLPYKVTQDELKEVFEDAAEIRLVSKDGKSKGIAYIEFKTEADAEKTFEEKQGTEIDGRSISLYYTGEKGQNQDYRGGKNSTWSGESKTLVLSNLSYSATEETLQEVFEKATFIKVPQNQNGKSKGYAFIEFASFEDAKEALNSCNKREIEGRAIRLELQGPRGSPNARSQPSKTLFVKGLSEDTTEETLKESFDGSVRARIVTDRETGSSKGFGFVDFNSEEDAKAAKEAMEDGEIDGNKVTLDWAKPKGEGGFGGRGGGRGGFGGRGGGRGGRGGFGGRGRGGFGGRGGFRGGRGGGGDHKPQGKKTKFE
Chain of GST-R234G, GST fusion of human nucleolin RBDs II, III, IV and the RGG domain (human) (P19338 389-710, stated change not applied): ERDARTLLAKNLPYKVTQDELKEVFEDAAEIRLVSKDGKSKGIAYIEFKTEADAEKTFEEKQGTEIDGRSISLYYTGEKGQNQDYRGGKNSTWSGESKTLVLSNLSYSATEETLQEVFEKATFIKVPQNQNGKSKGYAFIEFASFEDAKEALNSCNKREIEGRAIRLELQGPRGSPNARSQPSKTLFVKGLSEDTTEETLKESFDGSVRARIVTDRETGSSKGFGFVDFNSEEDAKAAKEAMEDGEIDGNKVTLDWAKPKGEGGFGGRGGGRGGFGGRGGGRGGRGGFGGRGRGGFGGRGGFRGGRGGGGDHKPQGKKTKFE
Chain of GST-R1234G, GST fusion of the C-terminal part of human nucleolin (RBDs I-IV and RGG domain) (human) (P19338 308-707, stated change not applied): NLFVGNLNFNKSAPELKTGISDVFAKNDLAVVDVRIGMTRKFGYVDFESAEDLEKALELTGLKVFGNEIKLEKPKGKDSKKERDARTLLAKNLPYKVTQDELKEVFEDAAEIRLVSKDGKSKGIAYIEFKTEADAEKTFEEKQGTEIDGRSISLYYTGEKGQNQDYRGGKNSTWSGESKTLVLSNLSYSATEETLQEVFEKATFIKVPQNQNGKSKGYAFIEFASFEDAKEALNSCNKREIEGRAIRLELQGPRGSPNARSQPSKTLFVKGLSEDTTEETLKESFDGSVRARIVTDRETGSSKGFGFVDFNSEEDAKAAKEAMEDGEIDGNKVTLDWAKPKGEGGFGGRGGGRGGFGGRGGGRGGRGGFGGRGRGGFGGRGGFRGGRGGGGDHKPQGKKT

B1: HB-19A, pseudopeptide 5[K-Psi(CH2N)-PR]-TASP with a modified TASP template (peptide)
peptide: Lys-Pro-Arg
chain: KKKKA
modifications: also: reduced amide bond Psi(CH2N) between Lys and Pro in each KPR, five KPR copies on the KKKKA template: alpha-NH2 of the four template Lys and epsilon-NH2 of the N-terminal Lys, template Lys linked through their epsilon-NH2 groups
- HB-19A concentration at saturation of binding [1]: 1 µM
- HB-19A concentration at saturation of specific binding [2]: 1 µM
- HB-19A concentration at maximum binding [3]: 5 µM
- HB-19A concentration at maximum binding [4]: 5 µM
- HB-19A concentration at maximum binding [5]: 5 µM

From patent US20040002457A1, “Inhibition of virus anchorage by RGG domain of a cell surface-expressed protein, polynucleotide coding for said RGG domain, therapeutic uses thereof by inhibition of microorganism or protein ligand binding to the cell-surface-expressed protein” (priority 2002, published 2004)
